Patent US7517654B2, “Peptide and a derivative thereof promoting cell adhesion and spreading” (Seoul National University Industry Foundation, priority 2004, dated 2009)
Entries after “also recorded” stand apart in the source; their conditions may differ.

Assays:
HOK-16B cells = assay: Cell adhesion assay on coated plates (crystal violet absorbance at 570 nm / cell counting); format: cell-based, human
Method: The cell adhesion assay was performed according to a method reported by Okazaki et al. (J. Biol. Chem., 277:37070, 2002). In detail, 24-well culture plates (Nunc, Roskilde, Denmark) were coated with various amounts of rLG proteins at 4° C. overnight. The peptides were also coated on plates by drying overnight. The substrate-coated on the plates were blocked by adding 1% heat-inactivated bovine serum albumin (BSA) in PBS for 1 h at 37° C. and washed twice with PBS. The cells in the Experimental Example 1, detached by 0.05% tyrpsin and 0.53 mM EDTA in PBS and resuspended in culture media, were added (1×10^5 cells/500 μl) to each plate and incubated for 1 h at 37° C. After incubation, unattached cells were removed by rinsing twice with PBS. The attached cells were fixed with 10% formalin in PBS for 15 min, rinsed twice with PBS, and stained with 0.5% crystal violet for 1 h. The plates were gently rinsed with DDW three times and lysed with 2% SDS for 5 min. Absorbance was measured at 570 nm in a Bio-Rad Model 550 microplate reader (BioRad).
The cell adhesion and spreading activities on peptide-coated plates were examined using HOK-16B cells by the same method as Experimental Example 2. 24-well plates were coated with 10, 20, 30, 40 and 50 μg/well peptides P1 to P5, respectively. HOK-16B cells were added to peptide-coated plates and cultured for 1 h in serum-free medium for 1 hr. After the unbound cells were washed off, adherent cells were fixed and stained with crystal violet, and then the stained cells were analyzed. Absorbance was measured at 570 nm in a microplate reader. BSA and the rLG3 were used as negative control and positive control, respectively.
It was observed that peptide P4 promotes strong cell adhesion and spreading activities and binds to integrin α3β1 in the Example 4. Therefore, to determine the biologically active core sequences in peptide P4, five synthetic peptides (P4 D-I to P4 D-V), which are C-terminal truncated peptides from the peptide P4, and six synthetic peptides (P4 D-N1 to P4 D-N6), which are N-terminal truncated peptides from the peptide P4 were prepared (FIG. 6A) and examined for HOK-16B cell adhesion and spreading activities on peptide-coated plates by the present inventors. 24-well plates were coated with 10 μg/well C-terminal truncated peptides or N-terminal truncated peptides, and HOK-16B cells were added to the plates, and then cultured in serum-free medium for 1 hr. After the unbound cells were washed off, the adherent cells were fixed to stain with crystal violet, and the stained cells were analyzed. Absorbance was measured at 570 nm in a microplate reader. Peptide P4 and BSA were used as the positive and negative controls, respectively.
24-well plates were coated with 10 μg/well peptides, and HOK-16B cells were added to the plates, and then cultured in serum-free medium for 1 hr. After the unbound cells were washed off, the adherent cells were fixed to stain with crystal violet, and the stained cells were analyzed. Peptide P4 and BSA were used as the positive and negative controls, respectively. The results were expressed as mean ±SD of the four independent experiments.

FAK = FAK phosphorylation assay (immunoblot, p-FAK/t-FAK); format: cell-based, human; details: 15 min
Method: The FAK phosphorylation assays were performed according to a method of Shang et al. (J. Biol. Chem., 276:33045, 2001). In detail, the HOK-16B cells were trypsinized, washed, and kept in suspension in serum-free KGM with 0.1% BSA for 1 h at 37° C. The 60-mm culture dishes were coated with laminin (5 μg/ml) or rLG3 protein (25 μg/ml) at 4° C. overnight. Peptides (50 μg/60-mm culture dish) were also coated on dishes by drying overnight. For the adherent FAK assay, 1×10^6 cells were plated onto uncoated, laminin-coated, rLG3 protein-coated, or various peptide-coated dishes and allowed to attach for 15, 30, or 60 min at 37° C. in an atmosphere of 5% CO2. At the end of the incubation, cells were washed with ice-cold PBS and lysed in RIPA buffer (50 mM Tris [pH 7.4], 150 mM NaCl, 1% Nonidet P-40, 0.5% Na-deoxycholate, 1 mM EDTA, 0.1% SDS, 2 mM Na3VO4, 1 mM glycerol phosphate, 1 mM PMSF, and protease inhibitor cocktail). Lysates were clarified by centrifugation at 12,000×g for 10 min at 4° C. to isolate cytosolic extracts.
The cytosolic extracts were denatured using SDS sample buffer [50 mM Tris-HCl (pH 6.8), 2% SDS, 10% glycerol, 0.1% bromophenol blue, 100 mM β-mercaptoethanol] and separated on an 8% SDS-polyacrylamide gel. Electrophoretic transfer of SDS-PAGE gel separated with protein to a nitrocellulose membrane was followed by immnoblotting with polyclonal anti-FAK antibodies to determine the total FAK level or immnoblotting with polyclonal anti-FAK [pY^397], [pY^407], [pY^576], [pY^577] or [pY^861] antibodies to determine the extent of tyrosine phosphorylation. The relative fold induction of FAK phosphorylation, defined as an increase in FAK phosphorylation of a sample relative to its corresponding background level (i.e., cells plated on plastic) was determined as follows: First, the densitomerty intensity of the phosphorylated FAK (p-FAK) and the total FAK (t-FAK) signals from the Western blots were measured with a LAS-1000plus (Fuji photo film, Japan). The ratio of p-FAK to t-FAK (p-FAK/t-FAK) for each sample was then calculated to correct for differences in protein loading. This ratio was normalized to the p-FAK/t-FAK ratio of the negative controls to obtain the relative fold induction of FAK phosphorylation.
HOK-16B cells isolated by trypsinization were suspended for 1 hr, and kept in suspension (Sus), or replated on 60-mm culture dishes coated with or without laminin (5 μg/ml). The cells were kept for 15, 30, or 60 min for being attached on plates, then cell lysates were analyzed by immunoblot analysis with anti-FAK p-Y397 antibody (Biosource, Camariollo, Calif.). […] This effect was observed within 15 min and peaked at 15 min after exposure to the laminin-coated plate (FIG. 8A).
Therefore, the extent of FAK phosphorylation at Tyr-397,-407,-576, -577, and -861 was investigated in HOK-16B cells cultured on plates coated with laminin (5 μg/ml), rLG3 (25 μg/ml), or peptides P1-P5 (50 μg/60-mm dish) for 15 min. The lysates were immnoblotted with polyclonal anti-FAK, p-Y397, p-Y407, p-Y576, p-Y577 or p-Y861 antibodies (Biosoucce, Camariollo, Calif.), and the total FAK level was detected using anti-FAK antibodies (Upstate Biotechnology, Lake Placid, N.Y. The ratio of p-FAK to t-FAK (p-FAK/t-FAK) for each sample was then calculated to correct for differences in protein loading. This ratio was normalized to the p-FAK/t-FAK ratio of the negative controls (cells on plates) to obtain the relative fold induction of FAK phosphorylation. As a result, the extent of FAK phosphorylation at Tyr-397 cultured on the laminin-coated or rLG3 protein-coated plates increased 16.2- and 8.2-fold compared with the untreated control (FIG. 8B).

Row | Molecule | coating concentration at which maximum cell adhesion was obtained (HOK-16B cells; HOK-16B cells, peptide-coated 24-well plates) | cell adhesion activity of synthetic peptides (HOK-16B cells; HOK-16B cells, plates coated with 10-50 μg/well peptide, 1 h, serum-free medium) | FAK phosphorylation level at Tyr-577 (FAK; HOK-16B cells on coated dishes, peptides 50 μg/60-mm dish) | reduction of the level of cell adhesion compared to the 5 μg/ml laminin-coated control (HOK-16B cells; 50 μg/ml rLG3 protein coating) | cell adhesion activity of rLG proteins (HOK-16B cells; HOK-16B cells on rLG protein-coated plates, 1 h, compared to BSA control) | coating concentration at which maximum adhesion occurs (HOK-16B cells; HOK-16B cells, rLG protein-coated plates) | changes of the FAK phosphorylation levels at Tyr-407, -576 and -861 (FAK; HOK-16B cells on coated dishes) | increase of FAK phosphorylation at Tyr-397 compared with the untreated control (FAK; HOK-16B cells, laminin 5 μg/ml or rLG3 25 μg/ml coating, p-FAK/t-FAK normalized)
1 | PPFLMLLKGSTR [peptide P4] | ≥ 10 μg/well | strong dose-dependent cell adhesion activity | higher than that in the cells spread on the other peptides; also recorded: lower than that on laminin |  |  |  |  | 
2 | rLG3: recombinant His6-tagged LG3 domain, residues 1128-1364 of human laminin α3 chain (protein, listed as Homo sapiens, His6 tag, recombinant His6-tagged LG3 domain, residues 1128-1364 of human laminin α3 chain) VRLNDTVGVTKKCSEDWKLVRSASFSRGGQLSFTDLGLPPTDHLQASFGFQTFQPSGILLDHQTWTRNLQVTLEDGYIELSTSDSGGPIFKSPQTYMDGLLHYVSVISDNSGLRLLIDDQLLRNSKRLKHISSSRQSLRLGGSNFEGCISNVFVQRLSLSPEVLDLTSNSLKRDVSLGGCSLNKPPFLMLLKGSTRFNKTKTFRINQLLQDTPVASPRSVKVWQDACSPLPKTQANH |  |  |  | approximately 45% | exhibited the adhesive activity | 25 µg/mL | not observed | 8.2 fold
